Reference: IntAct's records for PubMed 9697699

B1: Serine hydrolase RBBP9 (Rattus norvegicus (Rat)), O88350 (parent)
chain: MASPTKAVIVPGNGGGDVATHGWYGWVRKGLEQIPGFQCLAKNMPDPITARESIWLPFMETELHCDEKTIIIGHSSGAIAAMRYAETHQVYALILVSAYTSDLGDENERASGYFSRPWQWEKIKANCPHIIQFGSTDDPFLPWKEQQEVADRLDAKLYKFTDRGHFQNTEFHELIRVVKSMLTPAL
partner: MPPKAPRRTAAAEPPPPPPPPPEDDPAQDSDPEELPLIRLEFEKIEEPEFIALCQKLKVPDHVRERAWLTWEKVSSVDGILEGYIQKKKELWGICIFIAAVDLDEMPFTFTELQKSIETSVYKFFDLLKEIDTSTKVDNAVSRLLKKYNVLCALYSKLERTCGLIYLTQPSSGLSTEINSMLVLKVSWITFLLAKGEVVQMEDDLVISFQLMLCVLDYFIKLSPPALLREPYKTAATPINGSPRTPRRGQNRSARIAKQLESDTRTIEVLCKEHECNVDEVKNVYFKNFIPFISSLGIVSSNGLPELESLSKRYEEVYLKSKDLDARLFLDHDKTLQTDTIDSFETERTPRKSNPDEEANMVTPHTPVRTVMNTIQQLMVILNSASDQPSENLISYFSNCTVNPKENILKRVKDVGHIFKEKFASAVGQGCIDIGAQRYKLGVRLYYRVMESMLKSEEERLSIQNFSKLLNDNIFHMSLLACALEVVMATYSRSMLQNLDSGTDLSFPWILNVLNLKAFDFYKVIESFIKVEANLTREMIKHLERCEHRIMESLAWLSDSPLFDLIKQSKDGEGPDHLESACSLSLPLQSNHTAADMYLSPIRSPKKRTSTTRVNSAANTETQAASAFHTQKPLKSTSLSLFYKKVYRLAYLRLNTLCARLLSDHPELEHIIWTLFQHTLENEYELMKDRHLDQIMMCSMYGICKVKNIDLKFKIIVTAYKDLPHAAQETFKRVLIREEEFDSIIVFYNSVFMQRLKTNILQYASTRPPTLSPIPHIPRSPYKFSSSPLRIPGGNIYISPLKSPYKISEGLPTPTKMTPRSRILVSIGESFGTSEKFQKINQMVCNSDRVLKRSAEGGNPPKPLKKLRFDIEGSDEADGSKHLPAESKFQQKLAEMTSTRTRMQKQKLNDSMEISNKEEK

Variants of: B1
Conditions: with rb_rat Rb1, P33568
For L63E, the “effect of a mutation on the interaction” value was “disrupting interaction”.
